From PMC3112443

How the values were obtained:
[1] = non-reducing Western blot; conditions: glycan lost; control: wild type
[2] = supernatant titer on PFVL luciferase indicator cells; conditions: glycan lost; control: wild type

B1: human tetherin (HuTHN; BST-2, CD317, HM1.24): N65/92A (protein)
parent chain: MASTSYDYCRVPMEDGDKRCKLLLGIGILVLLIIVILGVPLIIFTIKANSEACRDGLRAVMECRNVTHLLQQELTEAQKGFQDVEAQAATCNHTVMALMASLDAEKAQGQKKVEELEGEITTLNHKLQDASAEVERLRRENQVLSVRIADKKYYPSSQDSSSAAAPQLLIVLLGLSALLQ
- oligomerisation [1]: no change
- other: inhibition of virus release [2]: no change
